According to article doi:10.1101/756791 (bioRxiv, 2019):

Tests used:
[1] = target: T1, Rpn10/S5a (UIM motifs: 196-306aa) (UniProt P55036 196-306); assay: ITC
T1 sequence (looked up): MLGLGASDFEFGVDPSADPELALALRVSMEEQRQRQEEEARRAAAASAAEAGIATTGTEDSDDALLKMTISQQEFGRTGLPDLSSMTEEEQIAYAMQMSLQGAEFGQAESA

[2] = target: T1, Rpn10/S5a (UIM motifs: 196-306aa); assay: NMR titration
[3] = target: hRpn13 (Pru domain: 1-150aa) (human, UniProt Q16186 1-150); assay: other fluorescence titration
[4] = target: T1, Rpn10/S5a (UIM motifs: 196-306aa); assay: NMR titration; remark: listed apart in the source

Chain of hRpn13 (Pru domain: 1-150aa) (Q16186 1-150): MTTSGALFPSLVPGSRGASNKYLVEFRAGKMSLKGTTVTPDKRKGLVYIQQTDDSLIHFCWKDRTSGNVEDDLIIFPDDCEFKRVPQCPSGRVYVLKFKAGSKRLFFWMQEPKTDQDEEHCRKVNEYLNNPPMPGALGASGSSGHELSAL

B1: viral Ubiquitin from Autographa Californica Multiple Nucleo-Polyhedrosis Virus (AcMNPV) (natural protein)
chain: not shown
Kd [1]: 85 µM
dH [1]: -4.5 ± 0.3 kcal/mol
stoichiometry N [1]: 2 ± 0.1
Kd [2]: 78 µM
Kd [3]: 0.04 µM
KD of the UIM1 site [4]: 331 µM
KD of the UIM2 site [4]: 21 µM
